Consider 6 substances from patent US20230203467A1.

Experiment [1] concerns the target VEGFR-1 on transfected endothelial cells (PAE/VEGFR-1) (UniProt P17948). Briefly: cell-based or functional assay.
Experiment [2] deals with VEGFR-2 receptor on transfected endothelial cells (PAE/VEGFR-2) (UniProt P35968). Briefly: cell-based or functional assay.

Some results are limits rather than exact numbers.

Chain of UniProt P17948 (P17948 27-1338 limits assumed): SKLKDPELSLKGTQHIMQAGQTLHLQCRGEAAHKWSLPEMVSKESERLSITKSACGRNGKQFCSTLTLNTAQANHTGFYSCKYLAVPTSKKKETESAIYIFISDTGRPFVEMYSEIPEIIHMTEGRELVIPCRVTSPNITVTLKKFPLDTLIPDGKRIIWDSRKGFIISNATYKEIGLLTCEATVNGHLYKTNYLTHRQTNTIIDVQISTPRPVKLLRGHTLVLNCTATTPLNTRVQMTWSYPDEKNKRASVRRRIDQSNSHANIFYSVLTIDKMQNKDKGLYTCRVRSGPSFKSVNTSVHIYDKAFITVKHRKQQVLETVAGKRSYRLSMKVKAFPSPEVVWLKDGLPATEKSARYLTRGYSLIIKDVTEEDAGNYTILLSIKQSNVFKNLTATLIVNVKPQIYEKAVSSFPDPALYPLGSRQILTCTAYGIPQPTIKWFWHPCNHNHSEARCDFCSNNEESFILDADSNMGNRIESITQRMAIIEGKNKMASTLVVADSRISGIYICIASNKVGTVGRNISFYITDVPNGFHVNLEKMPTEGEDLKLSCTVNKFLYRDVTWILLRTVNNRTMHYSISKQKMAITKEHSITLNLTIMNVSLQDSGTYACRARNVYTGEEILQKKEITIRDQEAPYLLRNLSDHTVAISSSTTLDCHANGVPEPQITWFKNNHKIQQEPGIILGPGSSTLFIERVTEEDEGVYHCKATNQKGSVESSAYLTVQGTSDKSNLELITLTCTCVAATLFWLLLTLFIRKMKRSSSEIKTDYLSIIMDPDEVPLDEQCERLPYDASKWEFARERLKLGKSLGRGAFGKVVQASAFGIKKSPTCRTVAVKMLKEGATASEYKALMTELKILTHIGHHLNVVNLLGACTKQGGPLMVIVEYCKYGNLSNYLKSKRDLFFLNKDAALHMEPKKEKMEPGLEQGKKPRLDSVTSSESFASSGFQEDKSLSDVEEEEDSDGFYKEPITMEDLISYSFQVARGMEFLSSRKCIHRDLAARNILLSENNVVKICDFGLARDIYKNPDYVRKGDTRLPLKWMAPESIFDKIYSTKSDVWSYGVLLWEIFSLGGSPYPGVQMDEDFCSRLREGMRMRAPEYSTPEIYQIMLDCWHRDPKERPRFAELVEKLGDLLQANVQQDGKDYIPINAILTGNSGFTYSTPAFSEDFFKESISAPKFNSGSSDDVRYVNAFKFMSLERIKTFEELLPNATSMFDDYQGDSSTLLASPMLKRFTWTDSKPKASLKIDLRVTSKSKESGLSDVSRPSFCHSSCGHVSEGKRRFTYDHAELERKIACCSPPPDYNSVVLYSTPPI

Turning to “EA-GrB/VEGF121 (from UniProt P15692 27-147)”, in experiment [1], the IC50 (nM) on PEA/VEGFR-1 cells, construct pre-incubated in FBS (4 h) is over 100 nM and the IC50 (nM) on PEA/VEGFR-1 cells, construct pre-incubated in PBS (4 h) is over 100 nM. Besides, in experiment [2], the IC50 (nM) on PEA/VEGFR-2 cells, construct pre-incubated in FBS (4 h) turned out to be 39 nM and the IC50 (nM) on PEA/VEGFR-2 cells, construct pre-incubated in PBS (4 h) turned out to be 8 nM.
In experiment [1], “EAPVPN-GrB/VEGF121 (from UniProt P15692 27-147)” displayed an IC50 (nM) on PEA/VEGFR-1 cells, construct pre-incubated in PBS (4 h) of over 100 nM. The substance further registered an IC50 (nM) on PEA/VEGFR-2 cells, construct pre-incubated in PBS (4 h) in experiment [2] of 5 nM.
For the substance “GrB/VEGF121 (from UniProt P15692 27-147)”, in experiment [1], the IC50 nM, cytotoxicity on PAE/VEGFR-1 (-) control cells is over 1000 nM; the IC50 (nM) on PEA/VEGFR-1 cells, construct pre-incubated in FBS (4 h) is over 100 nM; the IC50 (nM) on PEA/VEGFR-1 cells, construct pre-incubated in PBS (4 h) was over 100 nM. In experiment [2], the IC50 nM, cytotoxicity on PAE/VEGFR-2 (+) cells was found to be 15.3 nM; the IC50 (nM) on PEA/VEGFR-2 cells, construct pre-incubated in FBS (4 h) is over 100 nM; the IC50 (nM) on PEA/VEGFR-2 cells, construct pre-incubated in PBS (4 h) was found to be 4 nM.
In experiment [1], “LA-GrB/VEGF121 (from UniProt P15692 27-147)” registered an IC50 (nM) on PEA/VEGFR-1 cells, construct pre-incubated in FBS (4 h) of over 100 nM and an IC50 (nM) on PEA/VEGFR-1 cells, construct pre-incubated in PBS (4 h) of over 100 nM. In experiment [2], the IC50 (nM) on PEA/VEGFR-2 cells, construct pre-incubated in FBS (4 h) was 63 nM and the IC50 (nM) on PEA/VEGFR-2 cells, construct pre-incubated in PBS (4 h) amounted to 8 nM.
In experiment [1], “LP-GrB/VEGF121 (from UniProt P15692 27-147)” showed an IC50 (nM) on PEA/VEGFR-1 cells, construct pre-incubated in FBS (4 h) of over 100 nM and an IC50 (nM) on PEA/VEGFR-1 cells, construct pre-incubated in PBS (4 h) of over 100 nM. In experiment [2], this substance registered an IC50 (nM) on PEA/VEGFR-2 cells, construct pre-incubated in FBS (4 h) of 67 nM and an IC50 (nM) on PEA/VEGFR-2 cells, construct pre-incubated in PBS (4 h) of 2 nM.
As for “PVPN-GrB/VEGF121 (from UniProt P15692 27-147)”, the IC50 (nM) on PEA/VEGFR-1 cells, construct pre-incubated in PBS (4 h) in experiment [1] was over 100 nM. The substance also yielded an IC50 (nM) on PEA/VEGFR-2 cells, construct pre-incubated in PBS (4 h) in experiment [2] of 8 nM.
